The test system of this data set is Escherichia coli TOP10. The data set can be described thus: shrunken log2 fold change of peptide-encoding DNA abundance (4.5 h post-induction vs induction); higher = less antimicrobial activity (less host growth inhibition). The settings on record: time post-induction: 4.5 h; library: site-saturation at positions 5, 18, 19, 20.
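Note: peptides expressed intracellularly from a pBAD plasmid library in pooled LB shake-flask culture, induced with 0.3% L-arabinose, DNA abundance read by NGS, three biological replicates, DESeq2 with apeglm shrinkage.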

As to RRIRTRPPRLPRPRPRPLVAPRP, the “shrunken log2 fold change” value stood at 0.106. Turning to RRIRTRPPRLPRPRPRPRYCPRP, the “shrunken log2 fold change” value is -0.116. As for RRIRPRPPRLPRPRPRPGRWPRP, the “shrunken log2 fold change” value was found to be 0.551. As for RRIRIRPPRLPRPRPRPDYNPRP, the figure is -0.998; as for RRIRMRPPRLPRPRPRPENAPRP, 0.0504; as for RRIRDRPPRLPRPRPRPLKKPRP, 0.31. Turning to RRIRNRPPRLPRPRPRPQLKPRP, the “shrunken log2 fold change” value is -0.0663. As for RRIRSRPPRLPRPRPRPMAYPRP, the figure is -0.0939. To RRIRSRPPRLPRPRPRPRCNPRP belongs 0.124; to RRIRIRPPRLPRPRPRPNCIPRP, -0.408; to RRIRTRPPRLPRPRPRPTHPPRP, 0.312.

As for RRIRTRPPRLPRPRPRPMHYPRP, the “shrunken log2 fold change” value was -1.41. Take RRIRFRPPRLPRPRPRPRCEPRP: the “shrunken log2 fold change” value was -0.0311. As for RRIRVRPPRLPRPRPRPGAIPRP, the figure is 0.0707; as for RRIRYRPPRLPRPRPRPTRFPRP, 0.0879; as for RRIRMRPPRLPRPRPRPNIHPRP, -0.144. RRIRIRPPRLPRPRPRPRENPRP: the “shrunken log2 fold change” value turned out to be 0.0178. As for RRIRFRPPRLPRPRPRPRHSPRP, the figure is 0.0584. RRIRYRPPRLPRPRPRPVCGPRP: the “shrunken log2 fold change” value was -0.463. As for RRIRMRPPRLPRPRPRPRHNPRP, the figure is -0.0227; as for RRIRGRPPRLPRPRPRPVYIPRP, -0.194. As for RRIRMRPPRLPRPRPRPNQTPRP, the figure is -0.0789.

Consider RRIRWRPPRLPRPRPRPHHSPRP, for which the “shrunken log2 fold change” value was -0.667. As to RRIRLRPPRLPRPRPRPSYRPRP, the “shrunken log2 fold change” value is -0.242. As to RRIRCRPPRLPRPRPRPHQCPRP, the “shrunken log2 fold change” value is -0.24. To RRIRIRPPRLPRPRPRPGMIPRP belongs -0.309. As for RRIRERPPRLPRPRPRPRNIPRP, the figure is -0.095; as for RRIRFRPPRLPRPRPRPRVTPRP, 0.42. With RRIRQRPPRLPRPRPRPTDEPRP, the “shrunken log2 fold change” value was -0.131. As for RRIRTRPPRLPRPRPRPRRGPRP, the figure is 0.604. To RRIRVRPPRLPRPRPRPKSHPRP belongs 1.35; to RRIRFRPPRLPRPRPRPWIIPRP, -0.00565. As for RRIRCRPPRLPRPRPRPECQPRP, the figure is 0.511; as for RRIRGRPPRLPRPRPRPGQLPRP, 0.178; as for RRIRNRPPRLPRPRPRPIGDPRP, -0.0116. For RRIRKRPPRLPRPRPRPYDRPRP, the “shrunken log2 fold change” value amounted to 0.192. For the sequence RRIRHRPPRLPRPRPRPGPIPRP, the “shrunken log2 fold change” value is -0.133. As for RRIRIRPPRLPRPRPRPLVQPRP, the figure is -0.884.

For RRIRIRPPRLPRPRPRPRRYPRP, the “shrunken log2 fold change” value was 0.111. As for RRIRWRPPRLPRPRPRPWAYPRP, the figure is -0.502; as for RRIRARPPRLPRPRPRPPKYPRP, -0.109; as for RRIRYRPPRLPRPRPRPLWCPRP, -0.125. In the case of RRIRHRPPRLPRPRPRPVIIPRP, the “shrunken log2 fold change” value is -0.248. To RRIRTRPPRLPRPRPRPREAPRP belongs 0.388. With RRIRNRPPRLPRPRPRPIWHPRP, the “shrunken log2 fold change” value is -0.356. With RRIRVRPPRLPRPRPRPSCFPRP, the “shrunken log2 fold change” value was -0.264.

Regarding RRIRERPPRLPRPRPRPGNFPRP, the “shrunken log2 fold change” value was -0.0564. As for RRIRERPPRLPRPRPRPENDPRP, the figure is -0.0725; as for RRIRPRPPRLPRPRPRPVLSPRP, 0.076; as for RRIRYRPPRLPRPRPRPNYGPRP, -0.0594. For the sequence RRIRARPPRLPRPRPRPKRQPRP, the “shrunken log2 fold change” value is 0.0749. Regarding RRIRDRPPRLPRPRPRPRSRPRP, the “shrunken log2 fold change” value is 0.00639.

For RRIRYRPPRLPRPRPRPGPKPRP, the “shrunken log2 fold change” value came out at 0.185.

Regarding RRIRDRPPRLPRPRPRPYVQPRP, the “shrunken log2 fold change” value is -0.13. As for RRIRERPPRLPRPRPRPPIKPRP, the figure is -0.414; as for RRIRMRPPRLPRPRPRPLTVPRP, 0.169. In the case of RRIRARPPRLPRPRPRPNWNPRP, the “shrunken log2 fold change” value is -0.0314.

For the sequence RRIRHRPPRLPRPRPRPGKAPRP, the “shrunken log2 fold change” value was -0.0115.

On to RRIRRRPPRLPRPRPRPIQEPRP, for which the “shrunken log2 fold change” value was determined as 0.0641. As for RRIRTRPPRLPRPRPRPVGKPRP, the figure is 0.0504. Turning to RRIRMRPPRLPRPRPRPSSRPRP, the “shrunken log2 fold change” value came out at 0.208. To RRIRERPPRLPRPRPRPMIPPRP belongs -0.0272; to RRIRHRPPRLPRPRPRPDTFPRP, -1.19; to RRIRCRPPRLPRPRPRPMVNPRP, -0.0109. Take RRIRHRPPRLPRPRPRPASDPRP: the “shrunken log2 fold change” value was -0.0278. On to RRIRKRPPRLPRPRPRPIGSPRP, for which the “shrunken log2 fold change” value is -0.0113. To RRIRPRPPRLPRPRPRPVNKPRP belongs -0.521. Take RRIRYRPPRLPRPRPRPSWAPRP: the “shrunken log2 fold change” value was -0.21. Consider RRIRLRPPRLPRPRPRPHMQPRP, for which the “shrunken log2 fold change” value was -0.556. As to RRIRIRPPRLPRPRPRPPCMPRP, the “shrunken log2 fold change” value was -0.169. As for RRIRYRPPRLPRPRPRPMLAPRP, the figure is -0.269; as for RRIRDRPPRLPRPRPRPRFLPRP, -0.201. As for RRIRRRPPRLPRPRPRPENPPRP, the figure is 0.541. As for RRIRCRPPRLPRPRPRPQMIPRP, the figure is -1.55.

In the case of RRIRDRPPRLPRPRPRPSAPPRP, the “shrunken log2 fold change” value came out at 0.0189.

As to RRIRERPPRLPRPRPRPIKLPRP, the “shrunken log2 fold change” value is -0.481. To RRIRPRPPRLPRPRPRPTARPRP belongs 0.352; to RRIRGRPPRLPRPRPRPNQAPRP, -0.0774; to RRIRIRPPRLPRPRPRPWKAPRP, -0.00804. Consider RRIRHRPPRLPRPRPRPAIGPRP, for which the “shrunken log2 fold change” value is -0.0264. To RRIRIRPPRLPRPRPRPWNQPRP belongs 0.00812; to RRIRQRPPRLPRPRPRPMAHPRP, 0.00446; to RRIRHRPPRLPRPRPRPDAEPRP, 0.205.

Turning to RRIRYRPPRLPRPRPRPSCMPRP, the “shrunken log2 fold change” value is -0.947. As to RRIRVRPPRLPRPRPRPHGCPRP, the “shrunken log2 fold change” value is -0.041.

On to RRIRMRPPRLPRPRPRPVPFPRP, for which the “shrunken log2 fold change” value was 0.179.

For the sequence RRIRHRPPRLPRPRPRPTNSPRP, the “shrunken log2 fold change” value is -0.258. Take RRIRVRPPRLPRPRPRPPANPRP: the “shrunken log2 fold change” value amounted to 0.3. To RRIRTRPPRLPRPRPRPDHSPRP belongs -0.0596. Regarding RRIRERPPRLPRPRPRPYQRPRP, the “shrunken log2 fold change” value was -0.876.

As for RRIRLRPPRLPRPRPRPDAHPRP, the “shrunken log2 fold change” value is 0.133.

As to RRIRGRPPRLPRPRPRPEYEPRP, the “shrunken log2 fold change” value came to 0.165. Regarding RRIRMRPPRLPRPRPRPGDQPRP, the “shrunken log2 fold change” value came to 1.13. To RRIRPRPPRLPRPRPRPYNHPRP belongs -1.2; to RRIRIRPPRLPRPRPRPNAAPRP, -0.014. As to RRIRARPPRLPRPRPRPNHKPRP, the “shrunken log2 fold change” value is -0.351.

Consider RRIRSRPPRLPRPRPRPHEIPRP, for which the “shrunken log2 fold change” value was -0.346. To RRIRPRPPRLPRPRPRPKICPRP belongs -0.0701.

Regarding RRIRMRPPRLPRPRPRPGPVPRP, the “shrunken log2 fold change” value stood at 1.14.

On to RRIRWRPPRLPRPRPRPFREPRP, for which the “shrunken log2 fold change” value is -0.105. RRIRQRPPRLPRPRPRPPYQPRP: the “shrunken log2 fold change” value was -0.216. As for RRIRARPPRLPRPRPRPRYQPRP, the figure is -0.274. Consider RRIRCRPPRLPRPRPRPAYTPRP, for which the “shrunken log2 fold change” value is -0.305.

In the case of RRIRTRPPRLPRPRPRPIEGPRP, the “shrunken log2 fold change” value is -0.0197. Consider RRIRARPPRLPRPRPRPCILPRP, for which the “shrunken log2 fold change” value is -1.06. As for RRIRQRPPRLPRPRPRPQATPRP, the figure is -0.00963.

As to RRIRNRPPRLPRPRPRPQENPRP, the “shrunken log2 fold change” value was -0.151. For the sequence RRIRARPPRLPRPRPRPFGFPRP, the “shrunken log2 fold change” value was found to be 0.261. Take RRIRSRPPRLPRPRPRPNRTPRP: the “shrunken log2 fold change” value was -0.0602. Turning to RRIRMRPPRLPRPRPRPFGGPRP, the “shrunken log2 fold change” value stood at 0.222. As for RRIRARPPRLPRPRPRPRKIPRP, the figure is 0.429; as for RRIRYRPPRLPRPRPRPDRMPRP, -0.566; as for RRIRFRPPRLPRPRPRPWAPPRP, -0.013. Regarding RRIRIRPPRLPRPRPRPKTAPRP, the “shrunken log2 fold change” value is -0.143. For the sequence RRIRSRPPRLPRPRPRPGHEPRP, the “shrunken log2 fold change” value amounted to 0.101. To RRIRDRPPRLPRPRPRPVYFPRP belongs -0.447. Consider RRIRNRPPRLPRPRPRPGKFPRP, for which the “shrunken log2 fold change” value was -0.034. RRIRQRPPRLPRPRPRPIAVPRP: the “shrunken log2 fold change” value is -0.038. RRIRNRPPRLPRPRPRPWNQPRP: the “shrunken log2 fold change” value is -0.0135. As for RRIRARPPRLPRPRPRPMHCPRP, the figure is 0.0899. For the sequence RRIRMRPPRLPRPRPRPHELPRP, the “shrunken log2 fold change” value worked out at 0.627. Take RRIRRRPPRLPRPRPRPHVTPRP: the “shrunken log2 fold change” value was -0.154. On to RRIRVRPPRLPRPRPRPREFPRP, for which the “shrunken log2 fold change” value was determined as 0.126. To RRIRFRPPRLPRPRPRPTAAPRP belongs 0.569; to RRIRTRPPRLPRPRPRPLFKPRP, 1.5.

(Values after the supplement of paper PMC9112550, “Optimization of the antimicrobial peptide Bac7 by deep mutational scanning” (BMC Biology, 2022).)
